According to paper doi:10.1101/2023.11.26.568766 (bioRxiv, 2023):

Target: the molecule itself
Assay: crystal structure

B1: XccOpgD (D379N), OpgD from Xanthomonas campestris pv. campestris (enzyme)
chain: AKAVGLRRLGQPQPFDYAWLKGQARALAKAPYKSHKQVLPGPLESLNWDQYQSIRYRQDHALWADGNGKFQAKFFHLGLYFHTPVHIYDIVDGKAQQLAYDPAAFDYGRSGLGGKQLPKDLGFAGFRLNTRKDTDRDFSAFLGASYFRAVGKEGQYGQSARGLAIDTGTGGPEEFPDFIAYYLEQPADDSDTVVVYGLLDSPSVSGAYRFAITNGEVLVMDIDSALYPRKAIERLGIGPCTSMYQTGENDRRMDWDWRPEIHDTDGLAMWTGGGEWIWRPLCNPPHLRFNMFVDENPRGFGLLQRDRNFDHYQDDGVFYEKRPCLWVEPKSGWGKGSVQLVEIPTVDETFNNIVAFWNPQAKPQPGQELLMGYRLYWGAHPPASSPLAHCVATRTGLGGIVGQKRSHFSWRFAVDFAGGELAALAKDPKAKVEAVLQVSRGTTEIVSARPLHELKGYRAMFDLVPPDEGTQQIDIRLFLRANGKPLTETWLYQWTPPPASERKIY
binding result: binds
